These results are taken from US20240000957A1 (published 2024).

Assay [1] deals with T1, Rat EphA3 Fc fusion (Rat, UniProt O08680 21-541).
T1 construct: Bought Fc fusion; also called Sino Biologics 80465-R02H; not shown: Fc of the bought fusion
T1 sequence (looked up): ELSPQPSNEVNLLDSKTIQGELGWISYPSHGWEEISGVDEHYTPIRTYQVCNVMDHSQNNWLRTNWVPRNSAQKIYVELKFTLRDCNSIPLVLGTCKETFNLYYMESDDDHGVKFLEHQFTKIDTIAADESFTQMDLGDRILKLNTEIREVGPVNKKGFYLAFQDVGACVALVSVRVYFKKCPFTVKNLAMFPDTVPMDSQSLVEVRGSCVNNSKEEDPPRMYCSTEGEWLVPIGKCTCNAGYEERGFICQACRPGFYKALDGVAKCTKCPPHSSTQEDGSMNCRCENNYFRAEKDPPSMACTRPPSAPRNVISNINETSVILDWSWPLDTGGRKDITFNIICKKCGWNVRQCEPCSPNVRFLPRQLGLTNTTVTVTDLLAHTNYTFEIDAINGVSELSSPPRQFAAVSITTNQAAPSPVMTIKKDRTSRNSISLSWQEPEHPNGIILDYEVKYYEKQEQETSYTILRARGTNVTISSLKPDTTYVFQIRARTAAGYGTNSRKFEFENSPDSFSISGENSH
The assay can be described thus: SPR, Fc-tagged protein captured by anti-human IgG.

Assay [2] addresses T2, Rat EphB1 Fc fusion (Rat, UniProt P09759 18-540, limits assumed).
T2 construct: Bought Fc fusion; also called R&D Systems 1596-B1; not shown: Fc of the bought fusion
T2 sequence (looked up): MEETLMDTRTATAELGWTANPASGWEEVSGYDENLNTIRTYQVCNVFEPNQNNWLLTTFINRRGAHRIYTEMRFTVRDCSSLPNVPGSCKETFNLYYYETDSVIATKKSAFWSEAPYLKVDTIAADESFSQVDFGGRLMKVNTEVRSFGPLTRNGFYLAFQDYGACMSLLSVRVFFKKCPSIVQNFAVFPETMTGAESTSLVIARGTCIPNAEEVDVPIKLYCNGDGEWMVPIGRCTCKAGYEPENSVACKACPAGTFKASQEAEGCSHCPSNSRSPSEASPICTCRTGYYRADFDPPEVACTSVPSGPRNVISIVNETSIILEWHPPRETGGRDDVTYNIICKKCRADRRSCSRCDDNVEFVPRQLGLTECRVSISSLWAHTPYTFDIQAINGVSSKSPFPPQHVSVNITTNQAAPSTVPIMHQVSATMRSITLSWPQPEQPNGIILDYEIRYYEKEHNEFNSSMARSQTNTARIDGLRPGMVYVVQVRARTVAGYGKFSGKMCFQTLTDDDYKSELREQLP
Briefly: SPR, Fc-tagged protein captured by anti-human IgG. Background: In SPR one partner is held on a chip, and binding of the other changes the refractive index at the surface.

B1: BCY6033 (peptide)
peptide: AXDCPLVNPLCLHPGWTC
modifications: not fully specified; N-terminal (β-Ala)-Sar10 spacer precedes SEQ ID NO: 11; HArg (homoarginine) at residue 2 of SEQ ID NO: 11; three Cys cyclised on the TATA scaffold; ValCit-MMAE (MMAE-PABC-Cit-Val-glutarate) on the N-terminal amine
As for B1, the binding result in assay [1] and in assay [2] was “no binding (tested: 20 µM)” in each case.

B2: BCY6082 (peptide)
peptide: AXDCPLVNPLCLHPGWTC
modifications: not fully specified; N-terminal (β-Ala)-Sar10 spacer precedes SEQ ID NO: 11; HArg (homoarginine) at residue 2 of SEQ ID NO: 11; three Cys cyclised on the TATA scaffold; DM1-SS(SO3H)- (DM1-SO3H-SPDB) on the N-terminal amine
Take B2: the binding result in assay [1] and in assay [2] was “no binding (tested: 20 µM)” in each case.
